Experiment [1] addresses soluble mouse EPCR (mouse) (UniProt Q64695). Put plainly: isothermal titration calorimetry, soluble murine EPCR. Background: ITC needs no label: the signal is the heat of the interaction.
Experiment [2] addresses mouse endothelial protein C receptor (mEPCR), full-length, on CHO-K1 cells (mouse) (UniProt Q64695). Put plainly: saturation binding on CHO-K1 cells with mEPCR, 10 to 1000 nM ligand; bound material eluted and quantified by western blot; binding to CHO-K1 cells without mEPCR subtracted; fit of bound against ligand concentration. (In general: In western blotting, separated proteins are transferred to a membrane and probed.)

Another experiment has as its target T1, Human FVIIa (NovoSeven) (human, UniProt P08709 61-466).
T1 construct: mature
T1 sequence (looked up): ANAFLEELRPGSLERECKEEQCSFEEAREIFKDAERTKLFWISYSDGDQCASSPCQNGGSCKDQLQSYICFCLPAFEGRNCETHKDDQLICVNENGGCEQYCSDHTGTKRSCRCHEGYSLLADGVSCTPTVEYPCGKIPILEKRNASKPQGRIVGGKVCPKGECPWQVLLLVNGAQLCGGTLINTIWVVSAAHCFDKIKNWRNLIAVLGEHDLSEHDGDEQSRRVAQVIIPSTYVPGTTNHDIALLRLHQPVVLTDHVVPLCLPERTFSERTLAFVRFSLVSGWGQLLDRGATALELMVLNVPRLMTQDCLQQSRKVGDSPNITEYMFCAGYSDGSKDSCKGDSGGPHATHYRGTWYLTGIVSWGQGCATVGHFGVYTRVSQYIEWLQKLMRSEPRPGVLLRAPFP
Nature of the experiment: CHO-K1 cells expressing human EPCR, western blot of bound fraction. The procedure: (§1) FIG. 2A: Scheme for determining and quantifying binding of proteins to surface exposed mouse EPCR (mEPCR). The protein whose mEPCR binding is under investigation is added onto CHO-K1 cells expressing mEPCR (mEPCR+ve) or not (mEPCR−ve). Binding is done in the presence of physiological concentration of calcium and magnesium (1.6 mM and 0.6 mM, respectively). Following washing, the bound material is eluted with EDTA (10 mM). The bound, unbound and a portion of total loaded material are then subjected to polyacrylamide gel electrophoresis, transferred to nitrocellulose and detected by western blotting using protein-specific antibodies. FIG. 2B: Human plasma-derived protein C (hPC) or murine PC (mPC) that are known ligands for murine EPCR, were incubated with CHO-KI cells with or without murine EPCR expression. […] A variant mFVIIa bearing part of the mPC Gla domain ([1-11 mPC)-mFVIIa) restored binding of this chimeric molecule to murine EPCR.
(§2) FIG. 12. Binding of variants of human activated FVII with amino acid changes at position 8 (normally a Leucine). Conditioned medium from transient transfection was added on CHO-K1 cells expressing human EPCR, as described in FIG. 2. […] Following the wash of unbound material, the bound fraction was visualized by western blotting (shown in the bottom image). […] Human FVIIa (NovoSeven) is shown as a control for positive binding. […]

In experiment [3] the target is T2, wildtype human FVIIa (Leu at position 8), PACE/furin construct (human, UniProt P08709 61-466).
T2 construct: mature; Tested as conditioned medium from transiently transfected HEK-293 cells
T2 sequence (looked up): T1 sequence (looked up)
Nature of the experiment: conditioned medium on CHO-K1 cells expressing human EPCR, western blot of bound fraction. The procedure: as §1, §2

Experiment [4] deals with human plasma-derived protein C (hPC) (human, UniProt P04070 43-461). Put plainly: CHO-K1 cells with or without murine EPCR, EDTA elution, western blot. The procedure:
as §1

A further experiment has as its target T3, mPC F4L (mouse, UniProt P33587 42-460).
T3 construct: Tested as HEK-293 supernatant after transient expression; Position 4 is counted on the mature polypeptide; also called mouse PC Phe4 to Leu
T3 sequence (looked up): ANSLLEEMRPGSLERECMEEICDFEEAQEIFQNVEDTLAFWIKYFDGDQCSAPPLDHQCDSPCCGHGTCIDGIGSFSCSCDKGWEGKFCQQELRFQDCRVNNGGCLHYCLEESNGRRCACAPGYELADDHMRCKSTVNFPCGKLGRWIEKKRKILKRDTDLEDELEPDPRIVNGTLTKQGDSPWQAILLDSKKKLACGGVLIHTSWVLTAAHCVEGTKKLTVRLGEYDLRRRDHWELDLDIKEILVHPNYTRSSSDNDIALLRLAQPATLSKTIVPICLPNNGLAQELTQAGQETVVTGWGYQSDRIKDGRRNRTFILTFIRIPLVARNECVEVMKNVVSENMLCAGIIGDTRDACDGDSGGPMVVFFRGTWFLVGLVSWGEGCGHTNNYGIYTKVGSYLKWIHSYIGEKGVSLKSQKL
Put plainly: HEK-293 supernatant on CHO-K1 cells with or without mEPCR, western blot. The procedure:
as §1, with “The” for “FIG. 2A: Scheme for determining and quantifying binding of proteins to surface exposed mouse EPCR (mEPCR). The”
(§3) FIG. 4A: The Gla domain of the (1-11 mPC)-mFVIIa is shown. The blue box represents the first 11 amino acids of the mouse PC (mPC) Gla domain, whereas the red box represents the portion of the Gla domain of mouse FVIIa. […] Individual mutations were performed to change one amino acid in mFVIIa with the corresponding in (1-11 mPC)-mFVIIa. Following transient expression in HEK-293 cells, supernatant with each protein was incubated with CHO-K1 cells with or without expression of the mouse EPCR receptor. […] From top to bottom, sequences are SEQ ID NOs: 1-5. […]

For the next experiment, the target named is T4, murine protein C (mPC) (mouse, UniProt P33587 42-460).
T4 construct: also called mouse PC; mouse protein C
T4 sequence (looked up): T3 sequence (looked up) with L4F
Put plainly: HEK-293 supernatant on CHO-K1 cells with or without mouse EPCR, western blot of the bound fraction. The procedure: as §1, with “The” for “FIG. 2A: Scheme for determining and quantifying binding of proteins to surface exposed mouse EPCR (mEPCR). The”
as §3

In the next experiment the target is T5, mouse FVIIa (mFVIIa) (mouse, UniProt P70375 42-446).
T5 construct: mature; Recombinant; Has a Gla domain; also called mF7a
T5 sequence (looked up): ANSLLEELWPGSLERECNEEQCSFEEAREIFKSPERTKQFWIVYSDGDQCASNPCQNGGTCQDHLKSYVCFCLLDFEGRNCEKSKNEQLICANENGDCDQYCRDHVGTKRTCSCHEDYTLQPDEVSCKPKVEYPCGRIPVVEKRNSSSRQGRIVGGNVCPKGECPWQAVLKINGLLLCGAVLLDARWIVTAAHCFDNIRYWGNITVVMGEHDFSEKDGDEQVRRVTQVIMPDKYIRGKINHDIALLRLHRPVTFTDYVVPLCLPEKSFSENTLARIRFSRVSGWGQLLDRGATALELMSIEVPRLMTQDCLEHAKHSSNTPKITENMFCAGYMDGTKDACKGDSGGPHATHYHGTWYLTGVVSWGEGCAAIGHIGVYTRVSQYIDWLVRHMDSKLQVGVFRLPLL
Nature of the experiment: saturation binding on CHO-K1 cells with mEPCR, 10 to 1000 nM ligand; bound material eluted and quantified by western blot; binding to CHO-K1 cells without mEPCR subtracted; fit of bound against ligand concentration. The procedure: as §1
FIG. 7. Increasing concentration of ligand (mFVIIa or [1-11 mPC]-mFVIIa) was incubated with CHO-K1 cells without mEPCR (−mEPCR) or with mEPCR (+mEPCR). The experimental strategy described in Example I was followed and bound material was visualized. Following subtraction of non-specific binding (material incubated on CHO-K1[-]mEPCR cells), corrected amount of bound material (nM per 10⁶ cells) was plotted vs. concentration of ligand (nM). […]

Broadly, the Kd is the concentration at which binding is half-saturated. A higher Kd goes with lower affinity.

Residue numbers refer to the chain shown, from its start.

Chain of human plasma-derived protein C (hPC) (P04070 43-461): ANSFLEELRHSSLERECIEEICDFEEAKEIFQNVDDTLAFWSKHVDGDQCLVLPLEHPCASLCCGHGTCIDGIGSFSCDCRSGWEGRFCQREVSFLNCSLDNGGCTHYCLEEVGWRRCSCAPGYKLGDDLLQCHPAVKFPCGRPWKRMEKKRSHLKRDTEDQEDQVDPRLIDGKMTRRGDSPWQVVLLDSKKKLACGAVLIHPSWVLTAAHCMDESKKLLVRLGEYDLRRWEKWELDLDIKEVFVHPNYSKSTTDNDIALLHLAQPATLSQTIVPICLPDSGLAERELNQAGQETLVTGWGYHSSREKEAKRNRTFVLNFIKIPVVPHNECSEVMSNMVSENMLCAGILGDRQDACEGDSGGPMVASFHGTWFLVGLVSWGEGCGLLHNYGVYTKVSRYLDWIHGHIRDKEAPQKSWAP

With “(1-11 mPC)-mFVIIa (from UniProt P70375 42-446) (enzyme)”, the results for the Kd in experiment [1] and in experiment [2] were 480 nM and 340 nM, respectively.

B1: human EPCR on CHO-K1 cells (receptor, UniProt Q9UNN8 18-238, looked up)
chain: SQDASDGLQRLHMLQISYFRDPYHVWYQGNASLGGHLTHVLEGPDTNTTIIQLQPLQEPESWARTQSGLQSYLLQFHGLVRLVHQERTLAFPLTIRCFLGCELPPEGSRAHVFFEVAVNGSSFVSFRPERALWQADTQVTSGVVTFTLQQLNAYNRTRYELREFLEDTCVQYVQKHISAENTKGSQTSRSYTSLVLGVLVGSFIIAGVAVGIFLCTGGRRC
notes: whole, on cells; also called hEPCR
B1: the binding result (with Human FVIIa (NovoSeven); in experiment [3]) was “binds” in each case.

B2: mouse endothelial protein C receptor (mEPCR), full-length, on CHO-K1 cells (receptor, UniProt Q64695 18-242, looked up)
chain: LCNSDGSQSLHMLQISYFQDNHHVRHQGNASLGKLLTHTLEGPSQNVTILQLQPWQDPESWERTESGLQIYLTQFESLVKLVYRERKENVFFPLTVSCSLGCELPEEEEEGSEPHVFFDVAVNGSAFVSFRPKTAVWVSGSQEPSKAANFTLKQLNAYNRTRYELQEFLQDTCVEFLENHITTQNMKGSQTGRSYTSLVLGILMGCFIIAGVAVGIFMCTSGRRC
notes: whole, on cells; also called murine EPCR; mouse EPCR
Turning to B2, the results for the binding result (in experiment [4]; with mPC F4L; with murine protein C (mPC)) were “binds”, “no binding” and “binds”, respectively. This molecule also yielded a dissociation constant Kd in the experiment with mouse FVIIa (mFVIIa) of 10.6 µM.

For the origin of these results see patent US20150210994A1 (CHILDREN S HOSPITAL OF PHILADELPHIA, published 2015).
